Test results taken from article PMC12138128, “Thermal proteome profiling (TPP) reveals NAMPT as the anti-glioma target of phenanthroindolizidine alkaloid PF403” (Acta Pharmaceutica Sinica. B, 2025).

Target: the molecule itself
Test: crystal structure; cocrystal of recombinant NAMPT with the small molecule PF403, hanging drop vapor diffusion, 1.86 Å; NAMPT seen as a dimer with two PF403 molecules

B1: nicotinamide phosphoribosyl transferase (NAMPT), recombinant, His-tagged (enzyme, human)
chain: MNPAAEAEFNILLATDSYKVTHYKQYPPNTSKVYSYFECREKKTENSKLRKVKYEETVFYGLQYILNKYLKGKVVTKEKIQEAKDVYKEHFQDDVFNEKGWNYILEKYDGHLPIEIKAVPEGFVIPRGNVLFTVENTDPECYWLTNWIETILVQSWYPITVATNSREQKKILAKYLLETSGNLDGLEYKLHDFGYRGVSSQETAGIGASAHLVNFKGTDTVAGLALIKKYYGTKDPVPGYSVPAAEHSTITAWGKDHEKDAFEHIVTQFSSVPVSVVSDSYDIYNACEKIWGEDLRHLIVSRSTQAPLIIRPDSGNPLDTVLKVLEILGKKFPVTENSKGYKLLPPYLRVIQGDGVDINTLQEIVEGMKQKMWSIENIAFGSGGGLLQKLTRDLLNCSFKCSYVVTNGLGINVFKDPVADPNKRSKKGRLSLHRTPAGNFVTLEEGKGDLEEYGQDLLHTVFKNGKVTKSYSFDEIRKNAQLNIELEAAHH
notes: nicotinamide phosphoribosyl transferase (NAMPT), human; Dimer in the cocrystal structure with the small molecule PF403 (PDB 8Y55); also called recombinant NAMPT; WT NAMPT; source: E. coli BL21 (DE3), pET-28a(+), purified (Ni-NTA)
  binding result: binds
